Experimental findings from US20050176062A1, “Method of identifying ligands for nuclear receptors” (priority 2002, published 2005) are described below.

The labels stand for the following.
B1: biotinylated 24-mer GRIP1 peptide (Biotinyl-GSTHGTSLKEKHKILHRLLQDSSS-NH2) (peptide)
peptide: Biotin-GSTHGTSLKEKHKILHRLLQDSSS-NH2
SMILES: CC[C@H](C)[C@H](NC(=O)[C@H](CCCCN)NC(=O)[C@H](Cc1c[nH]cn1)NC(=O)[C@H](CCCCN)NC(=O)[C@H](CCC(=O)O)NC(=O)[C@H](CCCCN)NC(=O)[C@H](CC(C)C)NC(=O)[C@H](CO)NC(=O)[C@@H](NC(=O)CNC(=O)[C@H](Cc1c[nH]cn1)NC(=O)[C@@H](NC(=O)[C@H](CO)NC(=O)CNC(=O)CCCC[C@@H]1SC[C@@H]2NC(=O)N[C@@H]21)[C@@H](C)O)[C@@H](C)O)C(=O)N[C@@H](CC(C)C)C(=O)N[C@@H](Cc1c[nH]cn1)C(=O)N[C@@H](CCCNC(=N)N)C(=O)N[C@@H](CC(C)C)C(=O)N[C@@H](CC(C)C)C(=O)N[C@@H](CCC(N)=O)C(=O)N[C@@H](CC(=O)O)C(=O)N[C@@H](CO)C(=O)N[C@@H](CO)C(=O)N[C@@H](CO)C(N)=O
notes: Synthetic (Mimotopes #814201), immobilized on a streptavidin coated SA-chip; also called biotinylated GRIP1 peptide; immobilized GRIP1 peptide
B2: (His)6ERα-LBD301-553 (receptor, UniProt P03372 301-553, looked up)
chain: SKKNSLALSLTADQMVSALLDAEPPILYSEYDPTRPFSEASMMGLLTNLADRELVHMINWAKRVPGFVDLTLHDQVHLLECAWLEILMIGLVWRSMEHPGKLLFAPNLLLDRNQGKCVEGMVEIFDMLLATSSRFRMMNLQGEEFVCLKSIILLNSGVYTFLSSTLKSLEEKDHIHRVLDKITDTLIHLMAKAGLTLQQQHQRLAQLLLILSHIRHMSNKGMEHLYSMKCKNVVPLYDLLLEMLDAHRLHAPT
notes: Control protein, expressed in E. coli, purified by Ni-NTA and size exclusion; Tested alone, after preincubation with E2 (10 µM) and with the antagonist BA31257; also called ER-LBD; not shown: (His)6 tag
B3: (His)6ERa-LBD301-553: control protein, His-tagged ERα ligand binding domain 301-553, cloned and expressed in E. coli (protein)
chain: B2 chain
modifications: left off: small tags and cut ends
B4: non-biotinylated 20-mer GRIP1 peptide … (peptide)
peptide: GTSLKEKHKILHRLLQDSSS
modifications: not fully specified

The target in one test is T1, (His)6RORa-LBD269-556 (Homo sapiens, UniProt P35398).
T1 construct: Extraction is performed by mixing 2 ml of a solution containing (His)6RORa-LBD269-556 at 4.6 mg/ml; made in house; host or cells: Sf9 insect cells (baculovirus)
T1 sequence (P35398 269-556 isoform P35398-1): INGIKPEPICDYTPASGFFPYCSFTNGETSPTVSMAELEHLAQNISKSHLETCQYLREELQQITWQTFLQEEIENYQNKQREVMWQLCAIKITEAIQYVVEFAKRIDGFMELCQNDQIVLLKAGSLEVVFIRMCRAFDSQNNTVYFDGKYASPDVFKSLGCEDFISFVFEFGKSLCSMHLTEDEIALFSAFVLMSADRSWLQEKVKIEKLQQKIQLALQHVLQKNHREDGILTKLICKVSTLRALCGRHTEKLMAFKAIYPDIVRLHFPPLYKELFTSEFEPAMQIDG
As to the kind of experiment: GC-MS of the hexane extract of (His)6RORa-LBD269-556 (identification of bound ligands). The note with it: GC/MS after BSTFA derivatization, protein from Sf9 cells. How it is done:
Extraction is performed by mixing 2 ml of a solution containing (His)6RORa-LBD269-556 at 4.6 mg/ml and 2 ml of hexane and shaking for 1 minute. The aqueous phase is extracted a second time using the same procedure. The organic phases are pooled and evaporated to dryness under nitrogen. The extract is dissolved in […] pyridine. An aliquot of 10 ml is derivatized with 5 ml N,O-bistrimethylsilyl-trifluoroacetamide (BSTFA) at 60° C. for 30 min. Reference compounds cholesterol and 7-dehydrocholesterol (Sigma) are derivatized following the same procedure. For structure elucidation, the underivatized and the derivatized sample and reference compounds are analyzed by GC/MS, respectively.
The GC/MS system consists of a Carlo Erba Mega 5160 gas chromatograph, which is coupled to a Finnigan TSQ-700 mass spectrometer equipped with an electron impact ion source (EI). The ion source is heated to a temperature of 150° C., filament current is 20 mA, electron multiplier voltage 1000V, and the conversion dynode is set to 15 kV. The scan range is m/z 100-700 with a scan time of 2 seconds. The gas chromatographic separation is performed on a 10 m×0.2 mm Duran glass column coated with a […] film of SDPE-08 using hydrogen as carrier gas at a constant flow rate of 2.5 ml/min. The temperature program is set to 100-330° C. at a rate of 6° C./min. The GC/MS interface temperature is set to 350° C. […]

Another test has as its target T2, (His)6RORa-LBD304-556 (Homo sapiens, UniProt P35398).
T2 construct: Crystals are obtained for the construct (His)6RORa-LBD304-556 and diffraction data are collected to 1.88 Å; 6xHis (N); made in house; host or cells: Sf9 insect cells (baculovirus)
T2 sequence (P35398 304-556 isoform P35398-1): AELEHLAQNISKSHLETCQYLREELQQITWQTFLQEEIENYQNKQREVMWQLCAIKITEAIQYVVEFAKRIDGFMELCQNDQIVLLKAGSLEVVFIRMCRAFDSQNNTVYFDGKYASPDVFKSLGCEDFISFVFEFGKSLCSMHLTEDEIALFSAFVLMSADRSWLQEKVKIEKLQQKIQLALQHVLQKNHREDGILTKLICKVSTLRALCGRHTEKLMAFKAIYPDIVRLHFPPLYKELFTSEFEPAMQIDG
As to the kind of experiment: X-ray crystallography of (His)6RORa-LBD304-556 (ligand in the ligand binding pocket). To be noted: 1.88 Å diffraction data. The source says: Crystals are obtained for the construct (His)6RORa-LBD304-556 and diffraction data are collected to 1.88 Å at the synchrotron (SNBL, ESRF Grenoble). The structure is solved ab initio with a Hg-derivative.
The excellent fit to the electron density allows the identification of the ligand to be cholesterol. […] Based on the X-ray structure, proposals are made for cholesterol derivatives, and in particular cholesterol sulfate is proposed as a ligand with a higher affinity to RORa than cholesterol, because of the electrostatic interactions with two Arg-side chains at the hydrophilic end of the LBP. Confirmation of the presence of cholesterol and comparative binding studies between cholesterol and cholesterol sulfate are further achieved by mass spectrometry on construct (His)6RORa-LBD269-556.

Test [1] concerns the target biotinylated 24-mer GRIP1 peptide (Biotinyl-…-NH2) (mouse). In words: Biacore SPR, biotinylated peptide on streptavidin SA-chip, RORα-LBD injected.
In test [2] the target is B2. In words: Biacore SPR, biotinylated peptide on SA-chip, ER-LBD without added ligand (basal). For orientation: Surface plasmon resonance follows binding to a sensor surface in real time, without labels.
Test [3] addresses B2. As to the kind of experiment: Biacore SPR, biotinylated peptide on SA-chip, ER-LBD preincubated with E2 (10 µM).
The target in test [4] is B1. In words: Biacore SPR, ER-LBD preincubated with E2 (10 µM) against ER-LBD without ligand.
Test [5] deals with T3, ERα-LBD / GRIP1 peptide interaction (Homo sapiens, UniProt P03372).
T3 construct: Control proteins (His)6ERα-LBD301-553 and (His)6cytohesin-1 are cloned and expressed in E. coli; (His)6; made in house; host or cells: E. coli
T3 sequence (P03372 301-553): B2 chain
In words: Biacore binding assay of (His)6ERa-LBD301-553 to immobilized GRIP1 peptide (positive control). To be noted: basal level, no ligand; read-out: apparent Kd of ERa-LBD binding to immobilized GRIP1 peptide.

Test [6] addresses (His)6RORα-LBD269-556 (human) (UniProt P35398). In words: Biacore SPR competition: free 20-mer peptide inhibits binding of RORα-LBD to the immobilized 24-mer GRIP1 peptide.

What is called IC50 is the concentration needed to halve the response being measured.

Where no end group is shown, it is not given here. The star is where a group is joined. Biotin = O=C1N[C@H]2[C@H](CS[C@H]2CCCCC(=O)*)N1

With `CC(C)CCC[C@@H](C)[C@H]1CC[C@H]2C3=CC=C4C[C@@H](O)CC[C@]4(C)[C@H]3CC[C@]12C` [7-Dehydrocholesterol], at (His)6RORa-LBD269-556, the “SIC-% of compound in the extract of (His)6RORa-LBD269-556” value worked out at 18.3%.

In the case of `CC(C)CCC[C@@H](C)[C@H]1CC[C@H]2[C@@H]3CC=C4C[C@@H](O)CC[C@]4(C)[C@H]3CC[C@]12C` [Cholesterol], at (His)6RORa-LBD269-556, the “SIC-% of compound in the extract of (His)6RORa-LBD269-556” value amounted to 77.4%. Also, the “ligand found in the LBP by electron density” value on (His)6RORa-LBD304-556 is “unambiguous identification of the ligand as cholesterol”.

For “(His)6RORα-LBD269-556 (from UniProt P35398 269-523) (receptor)”, the Kd in test [1] came out at 241 nM.

B1: the Kd in the test with (His)6ERα-LBD301-553 [2] was ~450 nM; in the test with (His)6ERα-LBD301-553 [3] it was ~70 nM.

On to B2, for which the “fold increase of binding affinity” value in test [4] amounted to 6.5 fold.

Take B3: in test [5], the Kd is ~450 nM.

Molecule B4 had an IC50 in test [6] of 3000 nM. In other words, the single-digit micromolar range.
